Paper PMC12329598

How the values were obtained:
[1] = target: 1-442 Rap1GAP1a-RlucII, P47736-1; assay: ebBRET (Rap1GAP1a-RlucII recruitment to rGFP-CaaX at the plasma membrane); conditions: A293 cells with μ-opioid receptor, 48 h post-transfection, read off a plot
[2] = target: 1-442 Rap1GAP1a-RlucII, P47736-1; assay: ebBRET (agonist-induced net BRET, Rap1GAP1a-RlucII recruitment to the plasma membrane); conditions: 10 μM DAMGO; parent: est. 0.22; read off a plot
[3] = target: 1-442 Rap1GAP1a-RlucII, P47736-1; assay: ebBRET (Rap1GAP1a-RlucII recruitment to the plasma membrane); conditions: A293 cells, parent: est. 0.17, read off a plot
[4] = double mutant in Gαo(Q205L) background, Gαo(Q205L) bar in same panel est. 0.39

Sequence of 1-442 Rap1GAP1a-RlucII, P47736-1 (P47736 1-442 S437A/S439A/S441A): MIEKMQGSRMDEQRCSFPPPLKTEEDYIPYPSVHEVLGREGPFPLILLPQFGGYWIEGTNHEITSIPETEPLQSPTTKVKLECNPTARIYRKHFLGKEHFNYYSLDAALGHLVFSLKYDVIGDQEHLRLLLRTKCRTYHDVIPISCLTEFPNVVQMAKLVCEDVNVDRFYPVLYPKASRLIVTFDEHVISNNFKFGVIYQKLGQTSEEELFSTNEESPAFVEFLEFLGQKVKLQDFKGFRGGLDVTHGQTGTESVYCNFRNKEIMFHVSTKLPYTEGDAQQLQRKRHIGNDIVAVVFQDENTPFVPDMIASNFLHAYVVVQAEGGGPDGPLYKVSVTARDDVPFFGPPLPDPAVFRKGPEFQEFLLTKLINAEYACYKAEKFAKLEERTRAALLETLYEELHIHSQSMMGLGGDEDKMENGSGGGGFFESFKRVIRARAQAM

response ([1]; 10 μM DAMGO, parent: est. 0.32) [BRET ratio] | response ([1]; vehicle, parent: est. 0.12) [BRET ratio] | response [2] [Net BRET] | response ([3]; no-Gαo control bar est. 0.07) [BRET ratio] | response [3, 4] [BRET ratio] | Substance
0.18 | 0.04 | 0.14 | – | – | HA-Gαo^(WT) (from UniProt P09471) A221D
0.11 | 0.04 | 0.07 | – | – | HA-Gαo^(WT) (from UniProt P09471) E237K
0.06 | 0.035 | 0.03 | – | – | HA-Gαo^(WT) (from UniProt P09471) E246G
0.08 | 0.035 | 0.04 | – | – | HA-Gαo^(WT) (from UniProt P09471) G203E
0.3 | 0.07 | 0.23 | – | – | HA-Gαo^(WT) (from UniProt P09471) N242T
– | – | – | 0.39 | – | HA-Gαo^(WT) (from UniProt P09471) Q205L
– | – | – | – | 0.37 | HA-Gαo^(WT) (from UniProt P09471) Q205L; A221D
– | – | – | – | 0.14 | HA-Gαo^(WT) (from UniProt P09471) Q205L; E237K
– | – | – | – | 0.08 | HA-Gαo^(WT) (from UniProt P09471) Q205L; E246G
– | – | – | – | 0.085 | HA-Gαo^(WT) (from UniProt P09471) Q205L; G203E
– | – | – | – | 0.41 | HA-Gαo^(WT) (from UniProt P09471) Q205L; N242T
– | – | – | – | 0.035 | HA-Gαo^(WT) (from UniProt P09471) Q205L; R209C
– | – | – | – | 0.04 | HA-Gαo^(WT) (from UniProt P09471) Q205L; R209H
0.04 | 0.03 | 0.012 | – | – | HA-Gαo^(WT) (from UniProt P09471) R209C
0.045 | 0.035 | 0.015 | – | – | HA-Gαo^(WT) (from UniProt P09471) R209H
